Laboratory results taken from paper PMC5562350.

B1: DH270.6 (antibody, V domains shown)
VH: QVQLVQSGAQMKNPGASVKVSCAPSGYTFTDFYIHWLRQAPGQGLQWMGWMNPQTGRTNTARNFQGRVTMTRDTSIGTAYMELRSLTSDDTAIYYCTTGGWISLYYDSSYYPNFDHWGQGTLLTVSS
VL: QSALTQPASVSGSPGQSITISCTGTKYDVGSHDLVSWYQQYPGKVPKYMIYEVNKRPSGVSNRFSGSKSGNTASLTISGLRAEDEADYYCCSFGGSATVVCGGGTKVTVL

Biological target: Man9-V3 glycopeptide (HIV-1 (strain not stated))

| Molecule | Kd |
| --- | --- |
| DH270.1 (antibody) | 0.331 µM |
| DH270.IA2 (antibody) | > 10 µM |
| DH270.IA3 (antibody) | > 10 µM |
| DH270.IA4 (antibody) | > 10 µM |
| DH270.UCA (antibody) | > 10 µM |
| B1 | 0.188 µM |
